Here are results for two substances from patent publication US10281476B2, “Methods to identify modulators of RyR calcium channels” (REGENTS OF THE UNIVERSITY OF MINNESOTA, priority 2013, dated 2019).

Test [1] concerns the target RyR2 (Homo sapiens, UniProt Q92736). Particulars: cited from earlier work.
Another test deals with RyR1 (Homo sapiens, UniProt P21817). Particulars: cited from earlier work.
The subject of test [2] is permeabilized cardiomyocytes. As to the kind of experiment: Ca2+ sparks and SR Ca2+ content in permeabilized myocytes. Particulars: 5 μmol/L DPc10 with 1 μmol/L CaM or 100 nmol/L FKBP12.6. It counts as cell-based, rat. The procedure:
Myocytes were permeabilized with saponin (50μg/mL) for 60 seconds and placed in internal solution composed of EGTA 0.5 mmol/L; HEPES 10 mmol/L; Kaspartate 120 mmol/L; ATP 5 mmol/L; free MgCl2 1 mmol/L, reduced glutathione 10 mmol/L; and free [Ca2+] 50nmol/L (calculated using MaxChelator), creatine phosphokinase 5 U/mL, phosphocreatine 10 mmol/L, dextran 4% Fluo-4 0.025 mmol/L, pH 7.2. Ca2+sparks were recorded by a laser scanning confocal microscope (RADIANCE2000™ MP, Bio-Rad, UK) as previously described (Li et al., Circ Res, 2002; 90:309-316). Fluo-4 was excited at 488 nm and emission was recorded using 500/530 nm bandpass filter. To assess SR Ca2+content, caffeine (15 mmol/L) was rapidly perfused. Ca2+spark were analyzed as using SparkMaster (Picht et al., Am J Physiol Cell Physiol, 2007; 293:C1073-C1081).
Next, we asked whether RyR2 is activated by DPc10 and whether FKBP12.6 or CaM can prevent this. We assessed Ca^2+ sparks in permeabilized myocytes perfused with internal solution containing 50 nmol/L free Ca^2+ plus 1 μmol/L autocamtide-2-related inhibitory peptide (to inhibit CaMKII activity). Line-scan images were recorded after 3-hour incubations under control conditions and in the presence of 5 μmol/L DPc10, with or without 1 μmol/L CaM or 100 nmol/L FKBP12.6 (FIG. 14D).

The target of test [3] is T1, RyR2 (Rattus norvegicus, UniProt B0LPN4). Description: F-DPc10 wash-in and washout kinetics at the myocyte Z-line. It counts as binding. Also on record: endogenous in cells; host or cells: saponin-permeabilized adult rat ventricular myocytes. The procedure: To characterize DPc10-binding kinetics at Z-lines, we performed F-DPc10 wash-in (500 nmol/L) and washout experiments in permeabilized myocytes (FIG. 10A). Association (τwash-in=79.0±3.2 minutes) and dissociation (τwashout=149.8±4.4 minutes) were very slow compared with similar FKBP12.6 measurements (Guo et al., Circ Res, 2010; 106:1743-1752). From the wash-in/washout measurements, we calculated the association and dissociation rates constants, kon and koff, respectively, according to the following equation: kwash-in=[F-DPc10]kon+koff where kwashout≈koff and k=1/τ (s^−1). Accordingly, kon=202±20 (L mol^−1 s^−1) and koff=0.11±0.01 (10^−3 s^−1). […] We repeated this kinetic analysis using FRET between FKBP12.6 and DPc10, thus assessing the RyR2-specific DPc10 binding (FIG. 11A AND 11B). […] Based on these kinetic and affinity analyses, we infer that most of the Z-line-specific DPc10 binding is to RyR2. This is also consistent with Bmax, which would imply ≈1 DPc10 per RyR2 monomer.
We were intrigued by the slow kwash-in and conducted measurements to further understand the basis of this slow association. We tested the hypothesis that at resting [Ca^2+]i, DPc10 access to its RyR2 binding site is sterically hindered. If the N-terminal and central domains are tightly zipped to each other, then this interaction may occlude the DPc10-binding site on the RyR2, thus limiting the kon for DPc10. Alternatively, a limiting factor may be the rate at which DPc10 adopts a conformation that can bind to RyR2. To discern between these mechanisms, we determined the effect of [F-DPc10] on τwash-in. If the small fraction of DPc10 in the right conformation limits binding rate, then τwash-in should be faster at higher [F-DPc10], according to Equation. […] Instead, a 10-fold increase in [F-DPc10] had no significant effect on the τwash-in, although it did increase Bmax (FIG. 10B). The same was seen when using FKBP12.6-DPc10 FRET to assess τwash-in with 0.5 vs 5 μmol/L HF647-DPc10 (FIG. 12A AND 12B).
In our working model, under resting conditions, the RyR2 closed state may be stabilized by the interaction between the N-terminal and central domain in the zipped state. We hypothesized that conditions that promote RyR2 opening might enhance the rate of unzipping and accelerate τwash-in for F-DPc10. To test this, we first monitored F-DPc10 wash-in at elevated Ca^2+ (500 nmol/L). However, the 13% faster mean τwash-in was not significant (FIG. 13A). […] Thus, we preincubated myocytes with ryanodine (100 μmol/L) plus caffeine ([…]), which are known to favor long RyR2 openings and were reported to cause RyR2 domain unzipping in HEK293 cells (Liu et al., J Cell Sci, 2010; 123: 1775-1784). Ryanodine+caffeine produced a 21% faster τwash-in (P=0.002; FIG. 13B). However, the most significant effect was seen after presaturating RyR2 with NF-DPc10 (and then NF-DPc10 washout with F-DPc10 present; FIG. 13A). […] Assuming that koff of NF-DPc10 is the same as for F-DPc10 and using Equation, the kon is increased by 3.2-fold by unzipping as a result of prebinding of NF-DPc10 to the RyR2. Our working hypothesis is that the RyR2 open state may increase the probability of an RyR2 shifting to the unzipped state and may allow faster F-DPc10 wash-in. It also seems that the RyR2 open state (favored by caffeine-ryanodine) differs from the unzipped state (bound with DPc10).
Both FKBP12.6 and CaM bind to the RyR2 and can reduce channel opening, which might alter DPc10 binding. […] Neither CaM nor FKBP12.6 pretreatment altered M-line F-DPc10 fluorescence (FIG. 15). […] We infer that CaM stabilizes the domain interaction between N-terminal and central domains in the zipped state and thereby may reduce DPc10 access to its binding site. To test for direct CaM-DPc10 interaction, we performed control FRET measurements between donor-labeled CaM and acceptor-labeled DPc10 in solution in the absence of RyR. The maximal FRET efficiency (<1%) ruled out direct CaM-DPc10 interaction. […]
Target sequence in this assay (B0LPN4 whole entry): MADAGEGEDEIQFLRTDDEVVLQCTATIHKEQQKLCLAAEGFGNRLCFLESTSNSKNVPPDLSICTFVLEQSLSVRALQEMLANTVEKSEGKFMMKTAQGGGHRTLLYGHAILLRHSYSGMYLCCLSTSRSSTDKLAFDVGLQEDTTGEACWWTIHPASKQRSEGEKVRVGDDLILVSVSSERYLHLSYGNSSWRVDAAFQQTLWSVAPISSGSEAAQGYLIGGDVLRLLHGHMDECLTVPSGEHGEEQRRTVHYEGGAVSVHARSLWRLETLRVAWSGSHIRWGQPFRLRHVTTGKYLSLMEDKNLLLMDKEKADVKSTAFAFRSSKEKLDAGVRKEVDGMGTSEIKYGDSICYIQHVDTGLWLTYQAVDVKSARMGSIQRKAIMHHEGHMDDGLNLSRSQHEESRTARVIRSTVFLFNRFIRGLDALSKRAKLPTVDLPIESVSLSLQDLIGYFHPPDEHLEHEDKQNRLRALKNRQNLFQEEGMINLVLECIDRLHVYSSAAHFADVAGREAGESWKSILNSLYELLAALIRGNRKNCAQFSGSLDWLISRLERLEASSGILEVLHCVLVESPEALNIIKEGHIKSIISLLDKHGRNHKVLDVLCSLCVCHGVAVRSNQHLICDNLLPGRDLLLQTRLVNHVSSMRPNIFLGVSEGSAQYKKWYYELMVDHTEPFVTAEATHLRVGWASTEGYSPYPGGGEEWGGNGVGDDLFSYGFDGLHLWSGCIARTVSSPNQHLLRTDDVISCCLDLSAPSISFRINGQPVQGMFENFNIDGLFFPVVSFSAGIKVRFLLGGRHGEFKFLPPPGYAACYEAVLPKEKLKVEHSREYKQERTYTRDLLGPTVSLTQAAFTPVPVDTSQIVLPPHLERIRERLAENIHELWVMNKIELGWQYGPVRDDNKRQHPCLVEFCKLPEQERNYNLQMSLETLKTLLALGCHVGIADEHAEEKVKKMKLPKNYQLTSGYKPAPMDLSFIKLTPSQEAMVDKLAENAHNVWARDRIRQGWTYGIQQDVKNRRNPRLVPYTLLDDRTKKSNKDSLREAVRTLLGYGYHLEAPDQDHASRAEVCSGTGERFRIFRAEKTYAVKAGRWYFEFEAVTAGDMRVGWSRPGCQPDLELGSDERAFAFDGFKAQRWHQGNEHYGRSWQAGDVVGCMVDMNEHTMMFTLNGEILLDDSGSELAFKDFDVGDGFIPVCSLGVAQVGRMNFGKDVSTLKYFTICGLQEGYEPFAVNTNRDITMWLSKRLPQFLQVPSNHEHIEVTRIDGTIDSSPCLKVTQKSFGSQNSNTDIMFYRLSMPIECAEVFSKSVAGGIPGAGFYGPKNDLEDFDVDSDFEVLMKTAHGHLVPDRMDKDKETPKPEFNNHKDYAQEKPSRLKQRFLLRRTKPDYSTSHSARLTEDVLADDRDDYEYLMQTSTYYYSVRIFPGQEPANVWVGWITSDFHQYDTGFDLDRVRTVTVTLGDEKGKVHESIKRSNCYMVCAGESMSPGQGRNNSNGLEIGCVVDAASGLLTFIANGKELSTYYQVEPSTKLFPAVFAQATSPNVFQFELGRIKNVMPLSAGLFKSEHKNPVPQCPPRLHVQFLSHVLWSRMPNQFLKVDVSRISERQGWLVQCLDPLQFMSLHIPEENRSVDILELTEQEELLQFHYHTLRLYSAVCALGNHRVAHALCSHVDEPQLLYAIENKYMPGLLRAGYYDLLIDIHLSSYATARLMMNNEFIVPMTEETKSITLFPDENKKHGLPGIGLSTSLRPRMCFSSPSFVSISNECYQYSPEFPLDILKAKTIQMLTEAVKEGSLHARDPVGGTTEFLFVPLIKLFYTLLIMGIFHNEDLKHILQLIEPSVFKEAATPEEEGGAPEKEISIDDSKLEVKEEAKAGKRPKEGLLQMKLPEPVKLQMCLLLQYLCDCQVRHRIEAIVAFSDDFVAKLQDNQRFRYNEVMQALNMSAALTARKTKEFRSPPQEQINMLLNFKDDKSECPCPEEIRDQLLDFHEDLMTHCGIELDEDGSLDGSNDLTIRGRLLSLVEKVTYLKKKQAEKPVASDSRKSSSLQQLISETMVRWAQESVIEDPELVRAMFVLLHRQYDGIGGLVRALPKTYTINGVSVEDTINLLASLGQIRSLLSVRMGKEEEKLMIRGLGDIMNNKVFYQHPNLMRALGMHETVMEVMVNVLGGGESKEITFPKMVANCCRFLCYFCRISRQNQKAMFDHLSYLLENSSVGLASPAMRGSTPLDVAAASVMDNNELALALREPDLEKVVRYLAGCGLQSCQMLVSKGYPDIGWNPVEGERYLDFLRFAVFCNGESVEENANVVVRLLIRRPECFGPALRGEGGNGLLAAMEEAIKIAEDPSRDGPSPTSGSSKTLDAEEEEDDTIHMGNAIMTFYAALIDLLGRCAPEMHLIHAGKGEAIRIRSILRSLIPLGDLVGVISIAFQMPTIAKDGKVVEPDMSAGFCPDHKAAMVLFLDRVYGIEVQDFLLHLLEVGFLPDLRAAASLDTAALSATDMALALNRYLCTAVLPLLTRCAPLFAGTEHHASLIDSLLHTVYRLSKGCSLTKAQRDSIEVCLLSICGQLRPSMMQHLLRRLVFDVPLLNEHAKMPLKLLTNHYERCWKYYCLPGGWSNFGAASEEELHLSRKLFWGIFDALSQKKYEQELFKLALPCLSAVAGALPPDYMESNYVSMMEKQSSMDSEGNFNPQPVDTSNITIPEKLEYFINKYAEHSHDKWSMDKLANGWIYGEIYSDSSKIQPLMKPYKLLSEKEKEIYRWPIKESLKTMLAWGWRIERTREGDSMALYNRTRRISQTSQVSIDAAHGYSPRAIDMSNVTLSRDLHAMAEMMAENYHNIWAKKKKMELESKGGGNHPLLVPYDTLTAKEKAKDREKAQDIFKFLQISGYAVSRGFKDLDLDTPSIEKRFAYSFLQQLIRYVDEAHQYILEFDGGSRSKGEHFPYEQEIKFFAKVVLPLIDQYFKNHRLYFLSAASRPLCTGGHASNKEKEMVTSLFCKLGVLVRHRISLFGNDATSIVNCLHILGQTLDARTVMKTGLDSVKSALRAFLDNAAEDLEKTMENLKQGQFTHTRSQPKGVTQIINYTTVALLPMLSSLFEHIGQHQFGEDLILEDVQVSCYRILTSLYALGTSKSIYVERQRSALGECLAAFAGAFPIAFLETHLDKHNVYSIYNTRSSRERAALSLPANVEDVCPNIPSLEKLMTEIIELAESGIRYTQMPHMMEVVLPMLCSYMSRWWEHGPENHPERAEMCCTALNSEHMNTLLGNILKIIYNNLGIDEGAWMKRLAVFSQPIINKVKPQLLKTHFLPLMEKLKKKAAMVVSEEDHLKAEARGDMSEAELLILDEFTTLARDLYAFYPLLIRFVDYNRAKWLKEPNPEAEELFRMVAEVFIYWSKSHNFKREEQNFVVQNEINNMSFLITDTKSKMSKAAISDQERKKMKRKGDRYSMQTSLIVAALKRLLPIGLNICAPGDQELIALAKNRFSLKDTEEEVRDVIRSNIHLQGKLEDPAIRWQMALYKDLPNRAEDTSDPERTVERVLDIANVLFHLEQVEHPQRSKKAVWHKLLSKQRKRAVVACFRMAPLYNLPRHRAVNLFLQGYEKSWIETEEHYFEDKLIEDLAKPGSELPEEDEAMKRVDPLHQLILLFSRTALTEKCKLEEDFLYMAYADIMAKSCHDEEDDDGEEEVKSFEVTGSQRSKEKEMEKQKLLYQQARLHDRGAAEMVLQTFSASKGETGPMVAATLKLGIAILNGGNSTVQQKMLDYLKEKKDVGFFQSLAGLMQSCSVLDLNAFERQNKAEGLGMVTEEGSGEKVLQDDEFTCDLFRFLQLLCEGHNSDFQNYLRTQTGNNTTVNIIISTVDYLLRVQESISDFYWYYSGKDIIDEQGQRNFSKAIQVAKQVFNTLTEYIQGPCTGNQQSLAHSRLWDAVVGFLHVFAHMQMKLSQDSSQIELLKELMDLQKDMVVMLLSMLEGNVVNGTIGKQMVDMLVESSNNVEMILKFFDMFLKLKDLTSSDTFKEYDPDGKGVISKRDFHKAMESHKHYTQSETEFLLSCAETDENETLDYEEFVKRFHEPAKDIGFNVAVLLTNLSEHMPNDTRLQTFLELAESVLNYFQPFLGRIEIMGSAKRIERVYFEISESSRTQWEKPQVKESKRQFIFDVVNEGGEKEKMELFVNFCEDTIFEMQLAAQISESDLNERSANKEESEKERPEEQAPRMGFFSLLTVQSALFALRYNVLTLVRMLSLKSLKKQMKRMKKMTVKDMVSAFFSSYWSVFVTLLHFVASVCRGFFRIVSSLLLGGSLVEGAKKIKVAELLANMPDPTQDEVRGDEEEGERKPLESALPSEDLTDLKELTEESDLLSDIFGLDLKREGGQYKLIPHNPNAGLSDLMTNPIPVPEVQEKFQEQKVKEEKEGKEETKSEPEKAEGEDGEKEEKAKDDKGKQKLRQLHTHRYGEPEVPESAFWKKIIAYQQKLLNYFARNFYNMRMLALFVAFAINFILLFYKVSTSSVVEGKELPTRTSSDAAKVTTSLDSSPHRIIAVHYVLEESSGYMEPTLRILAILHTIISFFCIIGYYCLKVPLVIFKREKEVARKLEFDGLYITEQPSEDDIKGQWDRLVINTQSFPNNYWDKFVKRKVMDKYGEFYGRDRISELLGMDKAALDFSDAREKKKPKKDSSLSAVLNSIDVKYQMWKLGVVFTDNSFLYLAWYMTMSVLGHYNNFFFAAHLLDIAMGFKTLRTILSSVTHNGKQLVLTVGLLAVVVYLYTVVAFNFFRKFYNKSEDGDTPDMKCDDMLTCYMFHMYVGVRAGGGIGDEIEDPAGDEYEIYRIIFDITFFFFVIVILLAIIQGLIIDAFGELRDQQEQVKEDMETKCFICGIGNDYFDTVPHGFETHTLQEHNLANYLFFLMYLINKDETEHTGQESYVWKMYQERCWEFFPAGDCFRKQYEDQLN

In test [4] the target is T1, RyR2. Description: Fluorescent FKBP12.6 binding at the Z-line of permeabilized myocytes. Also on record: These fluorescent proteins were added to saponin-permeabilized myocytes with or without pre-equilibration with saturating DPc10 concentration; endogenous in cells; host or cells: saponin-permeabilized rat ventricular myocytes. The procedure: These fluorescent proteins were added to saponin-permeabilized myocytes with or without pre-equilibration with saturating DPc10 concentration. […] We also did this with high [CaM] (500 nmol/L) that saturates RyR2 with CaM under control conditions (without DPc10; FIG. 17C). […] To test whether DPc10 and CaM bind at the same or nearby RyR2 sites, we measured FRET between CaM and DPc10.
FKBP12.6 can bind to and stabilize RyR2 channel gating, but details are controversial (Bers et al., Circ Res. 2012; 110:796-799). We measured the effect of H2O2 on FKBP12.6-RyR2 binding affinity in saponin-permeabilized myocytes using F-FKBP (Yang et al., Circ Res. 2014; 114:295-306; Cornea et al., Proc Natl Acad Sci USA. 2009; 106:6128-6133; Guo et al., Circ Res. 2010; 106:1743-1752; Guo et al., Biophys J. 2011; 101:2170-2177; Cornea et al., J Biol Chem. 2010; 285:19219-19226). […] We used 1 nmol/L F-FKBP (the its Kd) (Guo et al., Circ Res. 2010; 106:1743-1752), because at half-saturation it would be very sensitive to either an increase or decrease in RyR2 binding.
Target sequence in this assay (B0LPN4 whole entry): as above
Target sequence in this assay (P68106 with tags, fused parts or gaps T15C/C23A/C77I partner): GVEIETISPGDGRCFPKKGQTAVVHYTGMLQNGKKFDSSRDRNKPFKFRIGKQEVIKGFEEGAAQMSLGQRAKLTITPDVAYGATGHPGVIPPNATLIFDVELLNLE

The target of test [5] is T1, RyR2. On the set-up: These fluorescent proteins were added to saponin-permeabilized myocytes with or without pre-equilibration with saturating DPc10 concentration; endogenous in cells; host or cells: saponin-permeabilized rat ventricular myocytes. Particulars: cited from earlier work.
Target sequence in this assay (B0LPN4 whole entry): as the sequence (B0LPN4 whole entry) above
Target sequence in this assay (P68106 with tags, fused parts or gaps T15C/C23A/C77I partner): as the sequence (P68106 with tags, fused parts or gaps T15C/C23A/C77I partner) above
[6] abbreviates: saturation of RyR2 with CaM 1 μmol/L or FKBP12.6 100 nmol/L, F-DPc10 5 μmol/L.

With “FKBP12: FK506-binding protein isoform FKBP12”, the “lower affinity than FKBP12.6” value in the test with RyR2 [1] was around 100 fold. Also, the lower binding affinity with RyR1 is around 4 fold.

Consider FKBP12.6: FK506-binding protein 12.6, for which the “effect on CaSpF activation by DPc10” value in test [2] was “only slightly decreased”. Further, the “effect on F-DPc10 binding” value with RyR2 [3] (200-minute incubation with F-DPc10, pretreatment CaM 1 μmol/L or FKBP12.6 100 nmol/L) is listed as “did not alter”. Besides, in the test with RyR2 [3] (setting [6]), the “effect on Bmax for F-DPc10” value is “did not alter” and the “effect on τwash-in of F-DPc10” value is recorded as “did not alter”. The “Bmax for FKBP12.6, reanalyzed using FZ-FM” value in the test with RyR2 [4] amounted to 1.3 µmol/L. In the test with RyR2 [5] (cell average fluorescence), the “Bmax of FKBP12.6, previous measurements” value is given as “≈ 1 μmol/L”. Also, in the test with RyR2 [5] (read-out: Kd of FKBP12.6 for RyR2), the Kd (in general, the equilibrium constant for the complex coming apart) was around 1 nM.
